In the supplement of paper PMC12636428:

System: Saccharomyces cerevisiae
Test: transcriptional activation domain activity (GFP:mCherry ratio, weighted mean of sorted bins, harmonized to initial dataset scale) (arbitrary fluorescence ratio units); higher = stronger transcriptional activation
Conditions: beta-estradiol 1 µM; induction time 4 h
Summary of the method: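 Each value is an activation activity: the read-weighted mean of bin median fluorescence, averaged across barcodes, then mapped linearly to the initial dataset scale. The tiles, fused to an estradiol-inducible synthetic transcription factor, sat at the yeast URA3 locus in GFP-reporter diploids. Cells spent 4 hours at 30 °C in SC with 1 uM beta-estradiol before sorting into 8 GFP:mCherry bins, and tiles below 50 reads were removed.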

| Sequence | transcriptional activation domain activity |
| --- | --- |
| HNILHLFSICVFRYHMLYYDEVRYIWKRWRRRSTYWFFLNRYFNFFGNGAITV | 64600 |
| HNLFELVFLDQMCGFCCFSMRFVVMLDLIGTIILPSTVIYLVYIIIAAVLKFQ | 38600 |
| HNQPVPKLLHITIYHLSTIPNDNLASFRDLLNHVHVYLLPLVSARPLFTLVTH | 78800 |
| HNTHKELSEQAVIDSFHVLCFSVGTIKNKPMIVYLVRQGPAIWLTMCTLNDLN | 27200 |
| HPLIDVSEEAFIQLAYLAVALAKHLCILTRVTYYQNVKGLSSSHFMYLFYICL | 40200 |
| HPLSQRYVLIMSITRLCIPLYFYGYEDNFIGHETTHWIWILVIYVSLQVLILF | 40200 |
| HPLSWAKFALVMGMLSSLGVLVISTYSVSLSILQFARPLQYIPRFLWTIATLV | 34400 |
| HPNDAGDENDGEGESAAPAKEKEPAGTAATPASYQLQSIACHKGTSIHAGHYV | 33100 |
| HQLGATESGLRAKNDGKLVQAEARAEGRVTFRTYLTYVRAAGTWTWMMTIFFL | 52800 |
| HQLGLVMLGMRCDLMRWMVCMDGIEYAGDIVIYCPALLLQLQCIVHTYGWAAR | 41700 |
| HQLYTDWLYLWWIAYTNKMHGRIYIILKESLKNLPIFGWGAQFYNFIFLCRNW | 56400 |
| HQPGPWESLDMPWAIGWGLGAFPGIPWDVFFFPLWPSTLFPGSPPPSLLEAPS | 55500 |
| HQVYTDWLYLWCLTYFARAHDQVLIILKKSLKHIPIVGWGMQFFRFLFLARSW | 31700 |
| HRAGTSGQSLQQDDVLHVTRATLVELGNTSISTVIASLLVLLEDLARPYAAVA | 36000 |
| HRGVSVGIQFAPAGSSWYVEPHKCLIWKSFYFLMMYFMHMCVEYVLLLRVLAL | 41200 |
| HRQTTLSVALPCGELHIAYLVAGLLFHGATCDDIVVIMLCARILFSVCKIYYH | 77100 |
| HRRHHVLLPHPAHTLLKGCFEPAFHNSIWHILSCHMYIPCTPILLLLIIQHVL | 33200 |
| HRVSMFLGYNPGNIVSNCRRCLDQWGPDILIHPSRIYLVVLPWLPPFFRKQLR | 56400 |
| HSACDIYYDNICLRLRLEGDLESYSYTARIVVVVLQLERRPMRGVPFITLVFD | 29400 |
| HSALSRSEVSGTGRKAYAQKGRGKARVGSLRAPHFRGGGRAFPVKPRDHSTKL | 17000 |
| HSDLLNDMDSASQRASHNASGFPNFLDTSCSSSFDDHFIFTNNLPFLNNNSIN | 60800 |

| Sequence | transcriptional activation domain activity |
| --- | --- |
| HSGVLRDVHVVFQDRSFCARLAEQIGRRLRMIYSNWRETCCMEMLITLSLRLF | 73200 |
| HSILGFRFPRLRIMRCITCSSMRPDLRWLTFPIFENLEVFITSLYLTRKYWIQ | 58300 |
| HSITNFELVEDAPHQVGFSTPQMTAKQLMESVSELDLPPLTLDEPPQAIKFNL | 75900 |
| HSKHSAEGIVVSKYLMCFLLFCVWIFTHLVEVAVLLLQIIYNTLFILRSLFLH | 63800 |
| HSLGSNASIDHLYTYTHAYIYTLYIWLPKMFSFFPFAIIFFLCMLLLFFIFIF | 64600 |
| HSLISWLLKSLENGAGAIVIRKLCSALVTHFVRFSHLWPLCVRSLLYCLHANR | 71400 |
| HSLLRGDKETGVCVIEMTPFKQGIDSGAIYGKKTVLVVFCLVKLLLSQAVPES | 28600 |
| HSLSTIGIDVSHWEPFPLASMQRALAYELHMFCPTLRTVIVWLRRYRYMWRWS | 45200 |
| HSMPSLATICGVCFIVDVYCIMRISLLHSYWIPMRRTLPLLAFPVVSFIFLFF | 79400 |
| HSPEAANAALRAMDGHSLEGHALKIQGSHRGADAAEERRKEDAAKKATGTKIL | 44000 |
| HSPYLNSEADFSQILSSAPPVHHDPNETHQENQDIIDRFANSSQEHNEYILQY | 66200 |
| HSQYMGYFGGYLVCHLWFTHRFVGMLRLGVVDVVWRFCVYLGLVGWSLGVCYS | 72500 |
| HSRSPSRHRRRSYSRSRRYDSRSPRRRRSGSPSRRIVDEEEAAVTDGFIRAVA | 37300 |
| HSSAPASPASPSPNSAPTPPATTPPPPPSPAAPRRTHSPPTPGTRRPSTTTPS | 53500 |
| HSSIEWLMGWPAGLKLNKELALFLGDLFLWVIEYWSSCISALQPLLPHMVWFI | 39900 |
| HSSSPEDQERKRSKSRLRDAAAAGAAALGVNEYENRKDRKKRERRRERSERRY | 24200 |
| HSSTAFSGYIDDPFNLNEILPLPASDFKLNTVTNLNEIDFTNIFTKSPHPHSG | 136000 |
| HSTLLYCHLLLLPFLSSCWALFFLFPLSFGSLFFLFFFFLFLFGAFSFFLSSL | 39600 |
| HSVHAGLIFPLFHRHCFYMLESSLRTKSDRLVFNSLSSHAGVIAWLRTQGVLQ | 65500 |
| HTFVRICKLAGDLIDWVGMCVDCGKCSATQGRDCLDVIMRLSIMAVHGLRFVG | 51400 |
| HTKSTESLVQLDDADGSRLDKVSGSLIQSLLASLGAQHKLVADAALTFLTAGR | 43900 |

| Sequence | transcriptional activation domain activity |
| --- | --- |
| HTQENEKVMWNIGSWNAPSLTNSWDSPPGNRTGAVTIGDESINGSEMPDFSLD | 36100 |
| HTQPNLVPWLRCFPADAISVELISHEYIIRILRPILPADWQRPLFYSHRIRMY | 28900 |
| HTRSLRYGKLRNGTLVRVPPTLIVRLKSHFHSLPCGVDLVLGLNGYIWVCMHI | 52700 |
| HTVGGKPSELMRSSEEDEDKICGAIGCDDTESAPSNACGRCKRVYYCSRACQT | 42800 |
| HVAMRAAVKANNSVMHRLLRNWGENRRRHFHGLLLVRLFRTTLVFSCADEVAA | 53300 |
| HVDQWTVIEQCLLYHQTNFIYFLFFAPLPPFLCLFFLLFVSLVFLCFDPFPLI | 42500 |
| HVDSYLRYLISHCKGRISSRGLVTARFLERRMRHLVWLLKVECVKWEYSPYTR | 79400 |
| HVERGRDVTKGFVKCHTHMRTTCVGSIRFSHAASFAPSVCLGVGVKSLDRRPL | 37300 |
| HVFPILLRLVGGYALLRKLIDSIEEAYLAYHMVASQTYFMSTSLTFCAILARM | 71200 |
| HVGRLMPIIAYFRAVIKCIEMLGVKRPVLVCPLSSFHGGFYVGGLMFQCVDRK | 62600 |
| HVLEYACSIAISRQQERRKRKAIRKSESLNALAKALLRLLSVFSTIRLASGQL | 91500 |
| HVNVPTQFLSMVCPMAESIVEMVNGRMNLVGTTNYWRMIILLRPYVFQCGAAI | 44200 |
| HVQIASSDVIKRVSSRVAWCLKSILTILLNVNQLEMSVLRSRVLRLIVFFLHY | 62300 |
| HVYGPTLVVHRYSLPLLFYYFVLFMFLESLPRLFRCISLFFQLAQLLMLLVPI | 34100 |
| HWDGVCRLFFFIYYIYFYFSMRACLLVLILCFESIVFGLVSFLVYLFSPFFFR | 40900 |
| HWKLNLYFMLTNVIVVLPLYQVYIYLLGCHPKSPLYHHRVKLSVFAWSIWFYC | 36200 |
| HWRAFVTGGGSAFWLLAYGIFYWASRLSLDSFTSVILYLGYLVLLALMDFLVT | 20300 |
| HWSYARNANMIVNFFYKNIMGIGVLWWFQIYCGWSTTYVFEYTYLLFWNVFWS | 56200 |
| HWSYYRNGNMIINFFYKEIINIGYLFWFQIYCAWSTAQAIDYVYLLFWNAFWT | 77100 |
| HYFLVIMVLGMIELLRFPETRDAGVSLIRELLAFKFAKTSWDVVICNQLEKYL | 41300 |
| HYNALNGRWKVFRNEKDEDSIRVVAGMVWWGKILVVTCVEKGVFQIRLFSSIN | 7550 |

| Sequence | transcriptional activation domain activity |
| --- | --- |
| HYRIRLIYFMHFVAFGFGLSSILVNLFLCRPLRKNWMTDVNGRCFNRDAFYYA | 58600 |
| IAAAAEQEEEDEASTSSTNTSNGDANARAHAHAHWESRRERELHADHRGGAGG | 31600 |
| IAAAGSNAASGHPDAKRAKTGASGSRAGSPSGSPPGSKPASRAGSPGAPRVPA | 16900 |
| IAHRYLVGYVYVRTHSQTGGLVYIWLLKRLGSLLSLQPILLGLIFLSRHLWIE | 55000 |
| IAILRLYSEPDVDLLRLSSQVLAASLLLDDHFICDIKNIRSVVAMIPRVLTLP | 46800 |
| IAIQVMNRVLFFKAFKNVTRYSCAYKLCLVFFFFYIVINGKNFYVIEYAHLSM | 49300 |
| IAKEIGKRLGFDENSEISYLAGIWSHCIAQQLIWNVAGGLLRVRGWLWKINLS | 79900 |
| IALCEAVYIWLAKQLYQEFGWKIYKKIGADLIKRRMYRDYHICLMLLKLDLFF | 64200 |
| IAMQPGEHQYDFEAHDFGLDLSDDLITQLEAGIGEYAWGSMPMDGNFWDQLYW | 127000 |
| IAPCGSWTPYTCLILGSIISLFIDFDVFAPFSYRGFITSYFGLAWFWFMFLFW | 56200 |
| IAQLRRDLFHAVWRLILTPALAEAYCHGIVIMCGDGVLRRVFPRFLLYSADYP | 63900 |
| IAQRLEILIYSHIVCIPLIASFSCLSWIFWMEYYFAWWFDSVITIRDINWHML | 36500 |
| IARADRTSPNDGGVALKKHVVVFASRPGLGLLIAAYLHKNLRSDWNIQLILGC | 66700 |
| IARPISFFVLGASAAFTTIRALGPSTHPLISVNYFSLWCTFVSLLALLLCPLL | 58700 |
| IARSRNLPLDVVMYLGSDEENDMMVDTLLLLHDYISKVRSLILRVNFMTLSCA | 66700 |
| IAYPFFFIHSILLNLYYALLPYAFYLYLYIYIFLSFFSRLTVSSSFIPPLLSP | 65000 |
| ICFSPPLISCGGFFPSDLLPFLFHSFSFYFLTCWLPVYFLPPLFVACFFICLP | 60100 |
| ICGMWLRGSFTFLSTVKDPHVLLRTMIKRDPELGFLWVGAFITGCHDRALREG | 71200 |
| ICGSVLKELEHKPFFIWFLRCVYHKVLVVLKNGPSAVVSVAEVQRPPQIGDEV | 30400 |
| ICHYKGSLIGKHFKSLSQVMPFIIYDLVPSTVLNAWTIMGKLIVLIWHTKILN | 38600 |
